In publication PMC8445599 one finds other: SUMOylated/non-SUMOylated data, which are given here for one substance.

This test has as its target FLAG-RepoMan-Ubc9. The experiment in a line: co-immunoprecipitation (IP anti-HA, immunoblot anti-FLAG, quantified with ImageJ). Conditions: 293FT cells; lane 18; with CFP-SUMO2(R59E); ratio of SUMOylated to non-SUMOylated FLAG-RepoMan(WT)-Ubc9 co-precipitated with HA-lamin A; input ratio 0.99 (lane …).

On to “HA–lamin A (WT) (from UniProt P02545) V494E; V495E”, for which the other: SUMOylated/non-SUMOylated worked out at 0.31.
